Target: T1, mouse CLU with C-terminal (His)6 (CLU-His), recombinant secreted clusterin, Q06890
T1 chain: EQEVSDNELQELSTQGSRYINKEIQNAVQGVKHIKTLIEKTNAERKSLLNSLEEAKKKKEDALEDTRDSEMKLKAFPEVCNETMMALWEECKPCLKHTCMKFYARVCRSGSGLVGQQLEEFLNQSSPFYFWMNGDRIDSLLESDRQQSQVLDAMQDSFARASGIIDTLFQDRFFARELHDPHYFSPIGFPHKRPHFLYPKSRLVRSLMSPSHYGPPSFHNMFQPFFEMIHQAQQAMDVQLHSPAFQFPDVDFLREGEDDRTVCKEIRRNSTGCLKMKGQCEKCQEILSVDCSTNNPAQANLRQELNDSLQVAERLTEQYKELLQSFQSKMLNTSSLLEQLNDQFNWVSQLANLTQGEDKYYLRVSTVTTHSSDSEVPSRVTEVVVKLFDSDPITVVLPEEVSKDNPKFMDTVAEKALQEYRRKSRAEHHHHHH

B1: MMP-9, propeptide-cleaved (APMA-processed active MMP-9) (protein)
chain: FQTFKGLKWDHHNITYWIQNYSEDLPRDMIDDAFARAFAVWGEVAPLTFTRVYGPEADIVIQFGVAEHGDGYPFDGKDGLLAHAFPPGAGVQGDAHFDDDELWSLGKGVVIPTYYGNSNGAPCHFPFTFEGRSYSACTTDGRNDGTPWCSTTADYDKDGKFGFCPSERLYTEHGNGEGKPCVFPFIFEGRSYSACTTKGRSDGYRWCATTANYDQDKLYGFCPTRVDATVVGGNSAGELCVFPFVFLGKQYSSCTSDGRRDGRLWCATTSNFDTDKKWGFCPDQGYSLFLVAAHEFGHALGLDHSSVPEALMYPLYSYLEGFPLNKDDIDGIQYLYGRGSKPDPRPPATTTTEPQPTAPPTMCPTIPPTAYPTVGPTVGPTGAPSPGPTSSPSPGPTGAPSPGPTAPPTAGSSEASTESLSPADNPCNVDVFDAIAEIQGALHFFKDGWYWKFLNHRGSPLQGPFLTARTWPALPATLDSAFEDPQTKRVFFFSGRQMWVYTGKTVLGPRSLDKLGLGPEVTHVSGLLPRRLGKALLFSKGRVWRFDLKSQKVDPQSVIRVDKEFSGVPWNSHDIFQYQDKAYFCHGKFFWRVSFQNEVNKVDHEVNQVDDVGYVTYDLLQCP
digestion of CLU by active MMP-9 (SDS/PAGE, Coomasie staining; gelatin as known substrate): the density of CLU protein, separated as a and 6 subunits, changed little, whereas most high molecular weight gelatin disappeared upon incubation with MMP-9, indicating that CLU is not a substrate for MMP-9 in vitro
